Data from patent US20160200763.

T1: L807
T1 chain: KEAPPSPPQSP

T2: pL807
T2 chain: KEAPPSPPQSP


Tests used:
L807 = target: T1, L807
pL807 = target: T2, pL807

Protein | peptide phosphorylation by GSK-3β (in vitro kinase assay, 32P-γ-ATP) (L807) | peptide phosphorylation by WT GSK-3β (in vitro kinase assay) (L807) | peptide phosphorylation by GSK-3β (in vitro kinase assay, 32P-γ-ATP) (pL807) | peptide phosphorylation by the F93A mutant (in vitro kinase assay) (L807)
Bacterially expressed Purified GSK-3β Wild-Type (WT) (protein) MSGRPRTTSFAESCKPVQQPSAFGSMKVSRDKDGSKVTTVVATPGQGPDRPQEVSYTDTKVIGNGSFGVVYQAKLCDSGELVAIKKVLQDKRFKNRELQIMRKLDHCNIVRLRYFFYSSGEKKDEVYLNLVLDYVPETVYRVARHYSRAKQTLPVIYVKLYMYQLFRSLAYIHSFGICHRDIKPQNLLLDPDTAVLKLCDFGSAKQLVRGEPNVSYICSRYYRAPELIFGATDYTSSIDVWSAGCVLAELLLGQPIFPGDSGVDQLVEIIKVLGTPTREQIREMNPNYTEFKFPQIKAHPWTKDSSGTGHFTSGVRVFRPRTPPEAIALCSRLLEYTPTARLTPLEACAHSFFDELRDPNVKLPNGRDTPALFNFTTQELSSNPPLATILIPPHARIQAAASTPTNATAASDANTGDRGQTNNAASASASNST | shows that L807 is a substrate of GSK-3 | L807 is phosphorylated by both GSK-3 and F93A | pL807 is not a substrate of GSK-3 | 
GSK-3β F93A mutant (in which Phe93 was replaced by alanine) (protein) MSGRPRTTSFAESCKPVQQPSAFGSMKVSRDKDGSKVTTVVATPGQGPDRPQEVSYTDTKVIGNGSFGVVYQAKLCDSGELVAIKKVLQDKRAKNRELQIMRKLDHCNIVRLRYFFYSSGEKKDEVYLNLVLDYVPETVYRVARHYSRAKQTLPVIYVKLYMYQLFRSLAYIHSFGICHRDIKPQNLLLDPDTAVLKLCDFGSAKQLVRGEPNVSYICSRYYRAPELIFGATDYTSSIDVWSAGCVLAELLLGQPIFPGDSGVDQLVEIIKVLGTPTREQIREMNPNYTEFKFPQIKAHPWTKDSSGTGHFTSGVRVFRPRTPPEAIALCSRLLEYTPTARLTPLEACAHSFFDELRDPNVKLPNGRDTPALFNFTTQELSSNPPLATILIPPHARIQAAASTPTNATAASDANTGDRGQTNNAASASASNST |  |  |  | L807 is phosphorylated by both GSK-3 and F93A
